# Source: IntAct's records for PubMed 18772112
# B1: Catenin beta-1 (Homo sapiens), P35222 (parent)
# chain: MATQADLMELDMAMEPDRKAAVSHWQQQSYLDSGIHSGATTTAPSLSGKGNPEEEDVDTSQVLYEWEQGFSQSFTQEQVADIDGQYAMTRAQRVRAAMFPETLDEGMQIPSTQFDAAHPTNVQRLAEPSQMLKHAVVNLINYQDDAELATRAIPELTKLLNDEDQVVVNKAAVMVHQLSKKEASRHAIMRSPQMVSAIVRTMQNTNDVETARCTAGTLHNLSHHREGLLAIFKSGGIPALVKMLGSPVDSVLFYAITTLHNLLLHQEGAKMAVRLAGGLQKMVALLNKTNVKFLAITTDCLQILAYGNQESKLIILASGGPQALVNIMRTYTYEKLLWTTSRVLKVLSVCSSNKPAIVEAGGMQALGLHLTDPSQRLVQNCLWTLRNLSDAATKQEGMEGLLGTLVQLLGSDDINVVTCAAGILSNLTCNNYKNKMMVCQVGGIEALVRTVLRAGDREDITEPAICALRHLTSRHQEAEMAQNAVRLHYGLPVVVKLLHPPSHWPLIKATVGLIRNLALCPANHAPLREQGAIPRLVQLLVRAHQDTQRRTSMGGTQQQFVEGVRMEEIVEGCTGALHILARDVHNRIVIRGLNTIPLFVQLLYSPIENIQRVAAGVLCELAQDKEAAEAIEAEGATAPLTELLHSRNEGVATYAAAVLFRMSEDKPQDYKKRLSVELTSSLFRTEPMAWNETADLGLDIGAQGEPLGYRQDDPSYRSFHSGGYGQDALGMDPMMEHEMGGHHPGADYPVDGLPDLGHAQDLMDGLPPGDSNQLAWFDTDL
# Variants of: B1
# Details: with runx3_human RUNX3, Q13761
# Sequence of runx3_human RUNX3, Q13761 (Q13761 whole entry): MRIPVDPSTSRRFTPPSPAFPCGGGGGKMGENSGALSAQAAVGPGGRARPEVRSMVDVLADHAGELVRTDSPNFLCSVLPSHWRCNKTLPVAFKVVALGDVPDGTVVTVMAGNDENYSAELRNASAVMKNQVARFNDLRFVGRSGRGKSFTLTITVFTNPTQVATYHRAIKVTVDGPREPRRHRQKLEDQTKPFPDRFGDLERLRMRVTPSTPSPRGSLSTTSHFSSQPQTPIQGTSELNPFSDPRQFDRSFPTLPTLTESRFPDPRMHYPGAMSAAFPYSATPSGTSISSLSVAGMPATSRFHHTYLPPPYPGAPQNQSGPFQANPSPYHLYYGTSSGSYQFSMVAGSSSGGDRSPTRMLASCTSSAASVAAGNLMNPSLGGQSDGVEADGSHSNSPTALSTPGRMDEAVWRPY
row,Variant,effect of a mutation on the interaction
1,S33Y,increasing interaction
